This assay has as its target EGF receptor (UniProt P00533). The assay can be described thus: cell-based or functional assay.

Regarding “IFNα-2a (R144A) - (Gly4Ser)7 - EGF chimeric activator (from UniProt P01563 24-188; P01133 23-1207)”, the inhibition of proliferation and survival of Daudi-EGFR cells (WST-1), potency against the corresponding IFNα2a mutant alone is 100 fold.

In the case of “IFNα-2a (R149A) - (Gly4Ser)7 - EGF chimeric activator (from UniProt P01563 24-188; P01133 23-1207)”, the specificity of IFNα signaling, Daudi-EGFR against parental Daudi cells is more than 20 fold.

Source of the values: patent publication US20170306030A1.
